Target: T1, BMP-4 (Homo sapiens, UniProt P12644)
T1 construct: purchased R&D Systems 314-BM
T1 sequence (P12644 293-408): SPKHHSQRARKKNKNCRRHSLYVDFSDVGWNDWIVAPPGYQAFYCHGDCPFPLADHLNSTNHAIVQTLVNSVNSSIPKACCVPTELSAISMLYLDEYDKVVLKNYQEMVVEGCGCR
Test: In vitro interaction test, variant A: immobilized BMP-4, detection of binding of RGMA-Fc fusion proteins
Settings: Working Example 3, FIG. 5
Method: Test Method 4: In Vitro Interaction Test for Determining the Interaction between RGMA and BMP-2 and -4
The interaction tests were carried out as described below:
Variant A: Immobilization of the BMP-2/ or -4 Protein and Detection of the Binding of Various RGMA-Fc Fusion Proteins
1. Plate: • Immunoplate Cert. MaxiSorp F96 (Nunc, 439454)
Recombinant human BMP-2, Catalog No.: 355-BM, Company: R&D Systems; Recombinant human RGM A, R&D Systems; Prod. #2495-RM, or
Recombinant human BMP-4, Catalog No.: 314-BM, Company: R&D Systems; • Concentration: 10 μg/mL • Volume used: 2.5 μg/mL in Na2CO3; addition: 50 μL per well • 1 hour at 37° C. in damp chamber
3. Washing step: • Wash 3× with PBS/[…] Tween 20
4. Blocking: • 3% BSA in PBS/0.02% Tween, 1 hour at 37° C. in damp chamber; addition: 200 μL per well
RGMA-Fc fragments, • 1 μg/mL initial concentration, then dilution down to 1:2 using PBS/0.02% Tween20 • […] • 1 hour at 37° C. in damp chamber
6. Washing step: • Wash 3× with PBS/0.02% Tween 20
Biotin anti-human Fc (R&D-Systems), Catalog No.: 709065; 1 mg/mL; • 1:200 in 0.6% BAS/PBS-T (0.02% Tween) • Addition: 50 μL per well • 1 hour at 37° C. in damp chamber
8. Secondary antibody: Strep. POD (Roche); Catalog No.: 11089153001 • 500 U; 1:5000 in 0.6% BAS/PBS-T (0.02% Tween) • Addition: 50 μL per well • 1 hour at 37° C. in damp chamber
9. Washing step: • Wash 3× with PBS/0.02% Tween 20
ImmunoPure TMB substrate kit; Pierce, #34021 • Development period: approximately 1-30 minutes • 1:1 mixture of […]; addition: 50 μL per well
11. Stop: • 2.5 M H2SO4; addition: 50 μL per well
The test was conducted according to test method 4, variant A above, with immobilization of BMP-4 (1 mg/mL). The binding of the fusion proteins was detected using anti-human-Fc or anti-Myc anti-rabbit (Invitrogen) antibodies.
The test was conducted according to test method 4, variant A above, with immobilization of BMP-4 (1 mg/mL). The binding of the fusion proteins was detected using anti-human-antibodies.

B1: fragment #786: Fc fusion protein of human RGM A amino acids 47-168 (protein)
chain: PCKILKCNSEFWSATSGSHAPASDDTPEFCAALRSYALCTRRTARTCRGDLAYHSAVHGIEDLMSQHNCSKDGPTSQPRLRTLPPAGDSQERSDSPEICHYEKSFHKHSATPNYTHCGLFGD
modifications: left off: small tags and cut ends; a dimerising Fc or GST
In the case of B1, the “binding to immobilized BMP-4, comparison among fragments” value is reported as “most strongly” and the “binding to immobilized BMP-4” value (detection anti-human-Fc or anti-Myc) is reported as “Significant concentration-dependent binding”.

From patent US20100322948A1, “Bone morphogenetic protein (BMP)-binding domains of proteins of the repulsive guidance molecule (RGM) protein family and functional fragments thereof, and use of same” (ABBOTT GMBH & CO. KG, priority 2007, published 2010)
